Measurements reported in US20140105889A1 (published 2014).

Target: T1, human FcγRIIIa(F) (human, UniProt P08637 17-208, limits assumed)
T1 construct: also called FcgRIIIaF; FcγRIIIa allotype F158
Test: SPR (Biacore), captured antibody, FcγR analyte; bound amount relative to GpH7-B3/GpL16-k0 x100;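 also: receptor response divided by the antibody amount captured on the chip before comparison with the reference antibody, measured at 25 °C in HBS-EP+ running buffer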
Experimental: Interaction between each modified antibody and Fcγ receptor prepared in the manner described above was analyzed using the Biacore T100 (GE Healthcare), Biacore T200 (GE Healthcare), Biacore A100 or Biacore 4000. HBS-EP+ (GE Healthcare) was used for the running buffer, and measurements were carried out at 25° C. The chips used were chips in which antigen peptides, Protein A (Thermo Scientific), Protein A/G (Thermo Scientific) or Protein L (ACTIGEN or BioVision) were immobilized on the Series S Sensor Chip CM5 (GE Healthcare) or Series S Sensor Chip CM4 (GE Healthcare) by amine coupling, or chips in which preliminarily biotinylated antigen peptides were allowed to interact and then immobilized on the Series S Sensor Chip SA (certified) (GE Healthcare). The target antibodies were captured on these sensor chips, Fcγ receptor diluted with the running buffer was allowed to interact, followed by measurement of the amount of bound antibody. The amounts bound were compared between antibodies. However, since the amount of Fcγ receptor bound depends on the amount of captured antibody, the values used for comparison were first corrected by dividing the amount of Fcγ receptor bound by the captured amount of each antibody. Through reaction with 10 mM glycine-HCl at pH 1.5, the sensor chips were regenerated by washing off antibody captured on the sensor chips and used repeatedly.
Binding strength was evaluated according to the following method based on the results of analyzing the interaction with each FcγR. […] That value was then further multiplied by 100, and the resulting value was used as an indicator of relative binding activity to each FcγR.

T1 sequence (P08637 other isoform, or with tags, fused parts or gaps limits assumed): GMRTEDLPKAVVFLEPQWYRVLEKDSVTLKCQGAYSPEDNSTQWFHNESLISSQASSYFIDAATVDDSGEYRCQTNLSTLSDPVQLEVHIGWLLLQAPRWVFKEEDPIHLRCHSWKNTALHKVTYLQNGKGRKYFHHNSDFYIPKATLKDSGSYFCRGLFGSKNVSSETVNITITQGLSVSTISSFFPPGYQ

Binder | relative binding activity
GpH7-B3/GpL16-k0 with A327R introduced into GpH7-B3 (antibody, human IgG1, Anti-glypican-3 human IgG1; constant region B3 (G1d with K439E); Fc variant; also called B3 variant; copies: 2 + 2) heavy: not shown light: DIVMTQSPLSLPVTPGEPASISCQASESLVHSNRNTYLHWYLQKPGQSPQLLIYKVSNRFSGVPDRFSGSGSGTDFTLKISRVEAEDVGVYYCSQNTHVPPTFGQGTKVEIE | 1 % of GpH7-B3/GpL16-k0
GpH7-B3/GpL16-k0 with A327F introduced into GpH7-B3 (antibody, human IgG1, Anti-glypican-3 human IgG1; constant region B3 (G1d with K439E); Fc variant; also called B3 variant; copies: 2 + 2) heavy: not shown light: DIVMTQSPLSLPVTPGEPASISCQASESLVHSNRNTYLHWYLQKPGQSPQLLIYKVSNRFSGVPDRFSGSGSGTDFTLKISRVEAEDVGVYYCSQNTHVPPTFGQGTKVEIE | 16 % of GpH7-B3/GpL16-k0
GpH7-B3/GpL16-k0 with A327H introduced into GpH7-B3 (antibody, human IgG1, Anti-glypican-3 human IgG1; constant region B3 (G1d with K439E); Fc variant; also called B3 variant; copies: 2 + 2) heavy: not shown light: DIVMTQSPLSLPVTPGEPASISCQASESLVHSNRNTYLHWYLQKPGQSPQLLIYKVSNRFSGVPDRFSGSGSGTDFTLKISRVEAEDVGVYYCSQNTHVPPTFGQGTKVEIE | 14 % of GpH7-B3/GpL16-k0
GpH7-B3/GpL16-k0 with A327K introduced into GpH7-B3 (antibody, human IgG1, Anti-glypican-3 human IgG1; constant region B3 (G1d with K439E); Fc variant; also called B3 variant; copies: 2 + 2) heavy: not shown light: DIVMTQSPLSLPVTPGEPASISCQASESLVHSNRNTYLHWYLQKPGQSPQLLIYKVSNRFSGVPDRFSGSGSGTDFTLKISRVEAEDVGVYYCSQNTHVPPTFGQGTKVEIE | 5 % of GpH7-B3/GpL16-k0
GpH7-B3/GpL16-k0 with A327L introduced into GpH7-B3 (antibody, human IgG1, Anti-glypican-3 human IgG1; constant region B3 (G1d with K439E); Fc variant; also called B3 variant; copies: 2 + 2) heavy: not shown light: DIVMTQSPLSLPVTPGEPASISCQASESLVHSNRNTYLHWYLQKPGQSPQLLIYKVSNRFSGVPDRFSGSGSGTDFTLKISRVEAEDVGVYYCSQNTHVPPTFGQGTKVEIE | 13 % of GpH7-B3/GpL16-k0
GpH7-B3/GpL16-k0 with A327M introduced into GpH7-B3 (antibody, human IgG1, Anti-glypican-3 human IgG1; constant region B3 (G1d with K439E); Fc variant; also called B3 variant; copies: 2 + 2) heavy: not shown light: DIVMTQSPLSLPVTPGEPASISCQASESLVHSNRNTYLHWYLQKPGQSPQLLIYKVSNRFSGVPDRFSGSGSGTDFTLKISRVEAEDVGVYYCSQNTHVPPTFGQGTKVEIE | 24 % of GpH7-B3/GpL16-k0
GpH7-B3/GpL16-k0 with A327P introduced into GpH7-B3 (antibody, human IgG1, Anti-glypican-3 human IgG1; constant region B3 (G1d with K439E); Fc variant; also called B3 variant; copies: 2 + 2) heavy: not shown light: DIVMTQSPLSLPVTPGEPASISCQASESLVHSNRNTYLHWYLQKPGQSPQLLIYKVSNRFSGVPDRFSGSGSGTDFTLKISRVEAEDVGVYYCSQNTHVPPTFGQGTKVEIE | 20 % of GpH7-B3/GpL16-k0
GpH7-B3/GpL16-k0 with A327Q introduced into GpH7-B3 (antibody, human IgG1, Anti-glypican-3 human IgG1; constant region B3 (G1d with K439E); Fc variant; also called B3 variant; copies: 2 + 2) heavy: not shown light: DIVMTQSPLSLPVTPGEPASISCQASESLVHSNRNTYLHWYLQKPGQSPQLLIYKVSNRFSGVPDRFSGSGSGTDFTLKISRVEAEDVGVYYCSQNTHVPPTFGQGTKVEIE | 18 % of GpH7-B3/GpL16-k0
GpH7-B3/GpL16-k0 with A327S introduced into GpH7-B3 (antibody, human IgG1, Anti-glypican-3 human IgG1; constant region B3 (G1d with K439E); Fc variant; also called B3 variant; copies: 2 + 2) heavy: not shown light: DIVMTQSPLSLPVTPGEPASISCQASESLVHSNRNTYLHWYLQKPGQSPQLLIYKVSNRFSGVPDRFSGSGSGTDFTLKISRVEAEDVGVYYCSQNTHVPPTFGQGTKVEIE | 42 % of GpH7-B3/GpL16-k0
GpH7-B3/GpL16-k0 with A327T introduced into GpH7-B3 (antibody, human IgG1, Anti-glypican-3 human IgG1; constant region B3 (G1d with K439E); Fc variant; also called B3 variant; copies: 2 + 2) heavy: not shown light: DIVMTQSPLSLPVTPGEPASISCQASESLVHSNRNTYLHWYLQKPGQSPQLLIYKVSNRFSGVPDRFSGSGSGTDFTLKISRVEAEDVGVYYCSQNTHVPPTFGQGTKVEIE | 10 % of GpH7-B3/GpL16-k0
GpH7-B3/GpL16-k0 with A327V introduced into GpH7-B3 (antibody, human IgG1, Anti-glypican-3 human IgG1; constant region B3 (G1d with K439E); Fc variant; also called B3 variant; copies: 2 + 2) heavy: not shown light: DIVMTQSPLSLPVTPGEPASISCQASESLVHSNRNTYLHWYLQKPGQSPQLLIYKVSNRFSGVPDRFSGSGSGTDFTLKISRVEAEDVGVYYCSQNTHVPPTFGQGTKVEIE | 18 % of GpH7-B3/GpL16-k0
GpH7-B3/GpL16-k0 with A327W introduced into GpH7-B3 (antibody, human IgG1, Anti-glypican-3 human IgG1; constant region B3 (G1d with K439E); Fc variant; also called B3 variant; copies: 2 + 2) heavy: not shown light: DIVMTQSPLSLPVTPGEPASISCQASESLVHSNRNTYLHWYLQKPGQSPQLLIYKVSNRFSGVPDRFSGSGSGTDFTLKISRVEAEDVGVYYCSQNTHVPPTFGQGTKVEIE | 17 % of GpH7-B3/GpL16-k0
GpH7-B3/GpL16-k0 with A327Y introduced into GpH7-B3 (antibody, human IgG1, Anti-glypican-3 human IgG1; constant region B3 (G1d with K439E); Fc variant; also called B3 variant; copies: 2 + 2) heavy: not shown light: DIVMTQSPLSLPVTPGEPASISCQASESLVHSNRNTYLHWYLQKPGQSPQLLIYKVSNRFSGVPDRFSGSGSGTDFTLKISRVEAEDVGVYYCSQNTHVPPTFGQGTKVEIE | 13 % of GpH7-B3/GpL16-k0
GpH7-B3/GpL16-k0 with L328G introduced into GpH7-B3 (antibody, human IgG1, Anti-glypican-3 human IgG1; constant region B3 (G1d with K439E); Fc variant; also called B3 variant; copies: 2 + 2) heavy: not shown light: DIVMTQSPLSLPVTPGEPASISCQASESLVHSNRNTYLHWYLQKPGQSPQLLIYKVSNRFSGVPDRFSGSGSGTDFTLKISRVEAEDVGVYYCSQNTHVPPTFGQGTKVEIE | 8 % of GpH7-B3/GpL16-k0
GpH7-B3/GpL16-k0 with L328H introduced into GpH7-B3 (antibody, human IgG1, Anti-glypican-3 human IgG1; constant region B3 (G1d with K439E); Fc variant; also called B3 variant; copies: 2 + 2) heavy: not shown light: DIVMTQSPLSLPVTPGEPASISCQASESLVHSNRNTYLHWYLQKPGQSPQLLIYKVSNRFSGVPDRFSGSGSGTDFTLKISRVEAEDVGVYYCSQNTHVPPTFGQGTKVEIE | 13 % of GpH7-B3/GpL16-k0
GpH7-B3/GpL16-k0 with L328K introduced into GpH7-B3 (antibody, human IgG1, Anti-glypican-3 human IgG1; constant region B3 (G1d with K439E); Fc variant; also called B3 variant; copies: 2 + 2) heavy: not shown light: DIVMTQSPLSLPVTPGEPASISCQASESLVHSNRNTYLHWYLQKPGQSPQLLIYKVSNRFSGVPDRFSGSGSGTDFTLKISRVEAEDVGVYYCSQNTHVPPTFGQGTKVEIE | 0 % of GpH7-B3/GpL16-k0
GpH7-B3/GpL16-k0 with L328N introduced into GpH7-B3 (antibody, human IgG1, Anti-glypican-3 human IgG1; constant region B3 (G1d with K439E); Fc variant; also called B3 variant; copies: 2 + 2) heavy: not shown light: DIVMTQSPLSLPVTPGEPASISCQASESLVHSNRNTYLHWYLQKPGQSPQLLIYKVSNRFSGVPDRFSGSGSGTDFTLKISRVEAEDVGVYYCSQNTHVPPTFGQGTKVEIE | 22 % of GpH7-B3/GpL16-k0
